Results as given in IntAct's records for PubMed 25042851.

molecular target: mlp3a_human MAP1LC3A (UniProt Q9H492)

Row | Substance | effect of a mutation on the interaction
1 | Toll-interacting protein (Homo sapiens) (from UniProt Q9H0E2) W133A;T134A;H135A;I136A | decreasing interaction strength
2 | Toll-interacting protein (Homo sapiens) (from UniProt Q9H0E2) W133A;T134A;H135A;I136A;W151A;Y152A;S153A;L154A | disrupting interaction strength
3 | Toll-interacting protein (Homo sapiens) (from UniProt Q9H0E2) W151A;Y152A;S153A;L154A | decreasing interaction strength
